# Measured values as given in the supplement of paper PMC10126150.
# ± gives the standard deviation of the averaged measurements.
# System: ATP
# Test: switch fluorescence ratio, 500 uM ATP over buffer (Cy3 cluster intensity, sum of 5 cycles each) (fold (ratio)); higher = stronger signal-on switching upon ATP binding; sequences stand for … in TCGTCGGCAGCGTCAGATGTGTATAAGAGACAGTTTTTTTTTTTTTTTTTTTTTTTTT…TC
# Conditions: aptamer strand: ATP DNA aptamer (quencher-CACCTGGGGGAGTATTGCGGAGGAAGG + anchor), 100 nM annealed; ATP concentration: 500 uM
# Method in brief: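 Clusters with intensities outside 100-1000 RFU were excluded. The remaining Cy3-labelled switching-strand clusters on a modified Illumina MiSeq flow-cell had been annealed to 100 nM quencher-labelled ATP aptamer and imaged in selection buffer, then after 15 min with 500 uM ATP at 22 °C, for five cycles separated by NaOH stripping and re-annealing. The fluorescence ratio, averaged per switch-domain sequence, is each cluster's summed target-cycle Cy3 intensity over its summed buffer-cycle Cy3 intensity.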
# 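Also: ATP exposure 15 min at 22 °C before imaging.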
row,Sequence,switch fluorescence ratio
1,AGTTCTTATT,0.965 ± 0.037
2,AATGCAGAGT,0.983 ± 0.012
3,ATCGTCTCGC,1.03 ± 0.05
4,GTGTGATGTG,0.9681 ± 0.0051
5,AAAGGGGGGG,1.01 ± 0.037
6,GTGGTTTGTG,1 ± 0.011
7,AGCATGAGTA,1.01 ± 0.014
8,GAGGTTTTGT,1 ± 0.023
9,GGTTTGGCGA,0.988 ± 0.044
10,GGGAAAATAT,0.999 ± 0.063
11,TAGGGAGAGG,0.9871 ± 0.0049
12,AAACGGGAG,1.032 ± 0.0067
13,CATTTCTAGA,0.9709 ± 0.0055
14,AAGCTCTTGT,1.01 ± 0.03
15,CATATTCTTT,0.979 ± 0.016
16,GCGTGCCGAC,0.9793 ± 0.0041
17,TAAACGAAGC,1.06 ± 0.039
18,CGCCCCGGCC,1.06 ± 0.097
19,TGGGGAGTGG,1.02 ± 0.065
20,CAAGCTTGGG,1 ± 0.034
21,AGGTAATCAT,1.01 ± 0.05
22,ATGGTAGGCT,0.98 ± 0.032
23,GTAGGGGTAC,1.47 ± 0.72
24,TGAGGTTAGG,1 ± 0.012
25,ACCTACCTCT,1.48 ± 0.14
26,TTTAACAGGG,1.03 ± 0.069

row,Sequence,switch fluorescence ratio
1,ATATTAGGTT,0.998 ± 0.018
2,TTTTGGGTGA,1.01 ± 0.024
3,ATCATGGATG,0.997 ± 0.019
4,ATTGTTTTTT,0.995 ± 0.01
5,AGGCCCGTTA,0.9957 ± 0.0027
6,TAAGGTATGT,1.03 ± 0.026
7,GCTCTCCTGT,1.02 ± 0.023
8,ACAAGTATTA,1.017 ± 0.0051
9,ACATTAAGGG,1.06 ± 0.031
10,GCGTCTTGTG,1.02 ± 0.11
11,GGTATTGAAG,0.999 ± 0.024
12,GGGTTTACGG,1.02 ± 0.017
13,AGGTGTTTAC,1.01 ± 0.011
14,GGTGTATTTA,1.02 ± 0.017
15,GATATCGCCG,1.022 ± 0.0034
16,GTTTGTGGAG,0.9683 ± 0.0071
17,TAGAGGTG,1.11 ± 0.016
18,GATGGGCAGG,1 ± 0.024
19,TCCAGTGGAA,0.989 ± 0.044
20,CCTCGATTCA,1.03 ± 0.017
21,GGATAGGGGT,1.05 ± 0.062
22,GCTTCGAAGG,0.993 ± 0.031
23,CCTAACCGTC,1.156 ± 0.0056
24,ATCTCCGGTT,1.1 ± 0.17
25,GGGGGGTTCA,1.01 ± 0.026
26,CCGTTTTGAA,0.981 ± 0.057

row,Sequence,switch fluorescence ratio
1,AGGGGTGCCG,1.05 ± 0.026
2,ACGAAAGGTG,1.58 ± 0.072
3,GAAGTATTTT,0.962 ± 0.027
4,GTCGAAGGGT,1 ± 0.048
5,TGTTCGAGGC,1.03 ± 0.013
6,TGGGGGTCCC,0.991 ± 0.017
7,GGGTTGAATA,0.953 ± 0.056
8,TATAAGTTTT,0.9823 ± 0.0096
9,CTGATAAAGG,0.969 ± 0.048
10,TTTCTTTGAA,0.977 ± 0.018
11,GATTTTAGTG,0.969 ± 0.015
12,GTGTGCCGGG,0.97 ± 0.0043
13,CACAAGGGCA,1.028 ± 0.0061
14,GAGTCTGCGT,1.08 ± 0.026
15,ACGAATGCGG,0.941 ± 0.042
16,TACGGGTAT,0.9977 ± 0.0024
17,GATACTATGT,1.01 ± 0.0085
18,GGAATATGC,1.13 ± 0.1
19,AGTTCTGGGT,1.04 ± 0.081
20,AGAAGATTGG,0.9723 ± 0.0053
21,ATAAGGTCGC,0.927 ± 0.021
22,GCTCGAGTGG,1.03 ± 0.053
23,GGGATGAGGG,0.97 ± 0.037
24,GGGTTTCGAC,1.02 ± 0.013
25,GTGATTTGT,1.01 ± 0.03
26,TTTATGGGTT,0.985 ± 0.018

row,Sequence,switch fluorescence ratio
1,GCCCCTGTTT,1 ± 0.023
2,CGTTCATGGG,0.993 ± 0.017
3,TTTTGCGGAT,1.04 ± 0.015
4,TTCGAGTGTC,1.05 ± 0.034
5,AGCCTAGGAT,1.04 ± 0.0021
6,TGGGGTTCTA,0.992 ± 0.026
7,AGTGTGTGGG,1.02 ± 0.03
8,GGAAGTCTCA,0.975 ± 0.012
9,GGGGTCATTG,0.988 ± 0.023
10,TTATCTAGCT,1.03 ± 0.023
11,TCACAGGATA,1.021 ± 0.0056
12,GATGTATAAA,1.0015 ± 0.00099
13,TTCTAATTAT,0.981 ± 0.019
14,TGTCGGGCAG,0.9843 ± 0.0038
15,GGAAGTAGGT,0.988 ± 0.02
16,ATGGGAAGGG,1.01 ± 0.015
17,AAAACAGTTT,0.987 ± 0.036
18,TTAACGGGGA,1.02 ± 0.017
19,AGACGAGACT,1.08 ± 0.03
20,AGGTCAGGTG,3.06 ± 0.33
21,AGTCATCTGC,1 ± 0.013
22,TGAATGAGGG,0.993 ± 0.029
23,TTCTCCCGGG,1.29 ± 0.068
24,CACCTGCCCC,1.347 ± 0.011
25,TAATGTTACT,1.04 ± 0.039
26,TATATTGGAT,0.985 ± 0.025

row,Sequence,switch fluorescence ratio
1,TGACTAATAA,1.02 ± 0.013
2,ATGTTGGTAC,1.04 ± 0.02
3,TAGGTTATGC,0.974 ± 0.036
4,ATCGATCGTT,0.9986 ± 0.0027
5,GGTTCTAGTG,0.968 ± 0.025
6,ATAGGCGCGC,1.04 ± 0.014
7,AGTTGGGACT,1.016 ± 0.0068
8,ACCAGGGGTT,1.19 ± 0.027
9,TAGGGTTCAG,0.993 ± 0.029
10,TAAGGGTTG,0.985 ± 0.058
11,GGGGTGTGGC,0.977 ± 0.046
12,TATAGAGGG,0.969 ± 0.011
13,AATTTATCAG,1.03 ± 0.039
14,GTAGGGACCG,0.909 ± 0.025
15,TTTGAGATGG,0.99 ± 0.024
16,GATAGGGGGG,1 ± 0.03
17,GACGGGTTGG,0.992 ± 0.045
18,AACGGGTGAG,0.9856 ± 0.0092
19,ATATTTTATT,1.02 ± 0.031
20,AGTCTGGTCC,0.987 ± 0.01
21,TTCGGTGTTG,0.969 ± 0.045
22,TAGGGAGGCA,1.01 ± 0.028
23,CGACTATTTT,1.01 ± 0.045
24,AAAATACGCT,1.16 ± 0.17
25,AGTCGATTTT,0.978 ± 0.012
26,AAAAATGTTC,0.9814 ± 4.7e-05

row,Sequence,switch fluorescence ratio
1,TAAGGAAAAT,0.998 ± 0.02
2,GACCTCATTT,1.04 ± 0.032
3,AGGACTTAGG,1.06 ± 0.056
4,TCAGAGGGAA,1.07 ± 0.1
5,TTCACTAGGT,1.01 ± 0.039
6,ATATCAGCGC,1.03 ± 0.018
7,CGGGAGAGAC,1.013 ± 0.0025
8,TGTGCTAGGG,0.98 ± 0.028
9,GTATGGAGGG,1.02 ± 0.029
10,AGGATTTTTT,1.003 ± 0.0094
11,GCGCTGCTGT,1.04 ± 0.038
12,TCGGTCTTTT,0.974 ± 0.029
13,TTCAATGTCA,0.99 ± 0.043
14,ACTAGGCAAT,1.96 ± 0.27
15,GTAGGGGTTT,0.998 ± 0.034
16,CCCTGGTGGG,1.04 ± 0.11
17,TCGGCTAAAT,1.003 ± 0.0063
18,AAATAATTGT,1.019 ± 0.01
19,AAGGGTTCCG,1.01 ± 0.047
20,TCTGACTTGA,0.968 ± 0.018
21,TATACCATGG,0.971 ± 0.046
22,CGGTGGCAGC,0.983 ± 0.038
23,TCTGTTAGTG,1.03 ± 0.045
